Measured values taken from patent publication US20030206891A1 (ARIAD GENE THERAPEUTICS, published 2003).

Molecular target: T1, Lex-FKBP (human, UniProt P0A7C2 1-87; P62942 2-108)
T1 construct: range 1-87;range 2-108; Translated in vitro in reticulocyte lysate; also called L87G6FKBP; p19BL87G6FKBP
Experiment: gel mobility shift with in vitro translated proteins and LexCon DNA probe, rapamycin added

binding result: binds
B1: Lex-FRAP (other, UniProt P0A7C2 1-87, looked up, not shown: small tags and cut ends)
chain: MKALTARQQEVFDLIRDHISQTGMPPTRAEIAQRLGFRSPNAAEEHLKALARKGVIEIVSGASRGIRLLQEEEEGLPLVGRVAAGEPEMWHEGLEEASRLYFGERNVKGMFEVLEPLHAMMERGPQTLKETSFNQAYGRDLMEAQEWCRKYMKSGNVKDLTQAWDLYYHVFRRISK
notes: range 1-87;range 2025-2113; Translated in vitro in reticulocyte lysate; Junction residues from the SpeI-XbaI ligation are not spelled out; also called L87FRB; p19BL87FRB
